In experiment [1] the target is histidine-tagged monomeric RgpA (rRgpAH) (Porphyromonas gingivalis W50, UniProt P28784 228-658). The experiment can be described thus: […], Tris buffer (50 mM Tris, 150 mM NaCl, 5 mM CaCl2, pH 8.0) […]. As to conditions: both partners purified.
Experiment [2] deals with RgpB (Porphyromonas gingivalis, UniProt P95493 230-736). Described as above. As to conditions: both partners purified.
Sequence of RgpB (P95493 230-736): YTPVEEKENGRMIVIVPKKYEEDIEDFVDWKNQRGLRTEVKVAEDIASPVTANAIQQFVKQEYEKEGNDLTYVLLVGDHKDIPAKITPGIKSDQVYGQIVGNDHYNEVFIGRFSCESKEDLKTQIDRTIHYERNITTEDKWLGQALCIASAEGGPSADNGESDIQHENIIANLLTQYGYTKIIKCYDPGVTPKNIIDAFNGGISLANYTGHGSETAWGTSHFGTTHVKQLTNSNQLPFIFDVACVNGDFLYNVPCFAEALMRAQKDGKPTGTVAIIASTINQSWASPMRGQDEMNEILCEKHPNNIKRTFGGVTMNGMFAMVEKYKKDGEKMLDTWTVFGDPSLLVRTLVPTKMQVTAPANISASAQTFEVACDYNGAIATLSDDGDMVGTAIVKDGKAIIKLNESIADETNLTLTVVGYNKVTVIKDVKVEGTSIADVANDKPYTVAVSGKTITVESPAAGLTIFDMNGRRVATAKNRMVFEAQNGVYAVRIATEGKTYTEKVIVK

Sequence of histidine-tagged monomeric RgpA (rRgpAH) (P28784 228-658, tags or fused parts left off): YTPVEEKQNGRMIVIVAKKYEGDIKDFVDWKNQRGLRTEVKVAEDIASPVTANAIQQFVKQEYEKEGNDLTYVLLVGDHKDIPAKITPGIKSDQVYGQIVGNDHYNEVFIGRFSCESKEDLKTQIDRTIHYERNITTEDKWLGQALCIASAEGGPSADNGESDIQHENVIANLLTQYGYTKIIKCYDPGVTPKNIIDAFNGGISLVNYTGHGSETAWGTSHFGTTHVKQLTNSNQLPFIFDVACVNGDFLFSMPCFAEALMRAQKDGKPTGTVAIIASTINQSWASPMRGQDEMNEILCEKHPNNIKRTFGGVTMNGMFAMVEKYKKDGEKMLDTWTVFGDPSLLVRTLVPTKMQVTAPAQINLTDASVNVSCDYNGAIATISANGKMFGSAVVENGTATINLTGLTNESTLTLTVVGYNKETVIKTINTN

B1: recombinant RgpA propeptide (rRgpA-PP) (domain or fragment)
chain: QQTELGRNPNVRLLESTQQSVTKVQFRMDNLKFTEVQTPKGMAQVPTYTEGVNLSEKGMPTLPILSRSLAVSDTREMKVEVVSSKFIEKKNVLIAPSKGMIMRNEDPKKIPYVYGKSYSQNKFFPGEIATLDDPFILRDVRGQVVNFAPLQYNPVTKTLRIYTEITVAVSETSEQGKNILNKKGTFAGFEDTYKRMFMNYEPGR
One may read the Ki as a dissociation constant, usually derived from enzyme kinetics or from competition with a known ligand. Lower therefore signals tighter binding. Consider B1, for which the values for the Ki in experiment [1] and in experiment [2] were 13 nM and 15 nM, respectively.

B2: recombinant RgpB propeptide (rRgpB-PP) (domain or fragment)
chain: QPAERGRNPQVRLLSAEQSMSKVQFRMDNLQFTGVQTSKGVAQVPTFTEGVNISEKGTPILPILSRSLAVSETRAMKVEVVSSKFIEKKDVLIAPSKGVISRAENPDQIPYVYGQSYNEDKFFPGEIATLSDPFILRDVRGQVVNFAPLQYNPVTKTLRIYTEIVVAVSETAEAGQNTISLVKNSTFTGFEDIYKSVFMNYEATR
For the molecule B2, the Ki in experiment [1] is 22 nM; in experiment [2], 29 nM.

For the origin of these results see paper PMC10319874 (Scientific Reports, 2023).
